Here are results for 1 molecule from patent US20170218059A1.

The Kd is the concentration at which binding is half-saturated.

The test addresses histones. The experiment in a line: ELISA. For orientation: In an ELISA, binding on a coated surface is turned into a signal by an enzyme label.

B1: murine IMMU-H4 antibody (antibody, V domains shown)
VH: QVQLQQSGAELVRPGASVKLSCTASGFNIKDDYLHWVKQRPEQGLEWIGWIDPENGDTEYASKFQGKATITADTSSNTAYLQLSSLTSEDTAVYYCSSPLVHLRTFAYWGQGTLVTVS
VL: DIQLTQSPASLAVSLGQRATISCRASESVDSYDNSLHWFQQKPGQPPKLLIYLASNLESGVPARFSGSGSRTDFTLTIDPVEADDAATYYCQQNNEDPWTFGGGTKLEIKR
In turn, B1 registered a Kd of 6.6 nM. This lies in the single-digit nanomolar range.
